± gives the standard error. For some of these results: Variants at the floor of the assay were thinned out.
B1: glmS ribozyme (parent)
chain: AUAAAAGCGCCAGAACUACAGAAAUGUAGUUGACGAGGAGGAGGUUUAUCGAAUUUUCGGCGGAUGCCUCCAAA

Columns and labels:
Settings in all cases: with glucosamine-6-phosphate
glucosamine-6-phosphate [1] = variants of: B1; assay: kcat; higher = faster cleavage; RNA array
Summary of the method: (§1)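 Sequenced MiSeq chips were the platform: E. coli RNA polymerase transcribed barcoded ribozyme variants on them in situ, and a hybridised Cy3 probe tracked these at 37 °C. After glucosamine-6-phosphate (40 μM to 10 mM) in HEPES/KCl/Mg(OAc)2 buffer was flowed in, tiles were imaged over ~14 h. Signals normalised to baseline and to non-cleaving reference variants were reduced to per-tile medians and fit to one- or two-exponential decays to obtain kobs. kcat and KM were derived through weighted Michaelis–Menten fits across concentrations.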

glucosamine-6-phosphate [2] = variants of: B1; assay: self-cleavage kobs at 640 uM GlcN6P; higher = faster cleavage; RNA array
Summary of the method: as §1

glucosamine-6-phosphate [3] = variants of: B1; assay: self-cleavage kobs at 10000 uM GlcN6P; higher = faster cleavage; RNA array
Summary of the method: as §1

glucosamine-6-phosphate [4] = variants of: B1; assay: self-cleavage kobs at 2500 uM GlcN6P; higher = faster cleavage; RNA array
Summary of the method: as §1

glucosamine-6-phosphate [5] = variants of: B1; assay: KM; higher = weaker cofactor use; RNA array
Summary of the method: as §1

glucosamine-6-phosphate [6] = variants of: B1; assay: self-cleavage kobs at 40 uM GlcN6P; higher = faster cleavage; RNA array
Summary of the method: as §1

glucosamine-6-phosphate [7] = variants of: B1; assay: self-cleavage kobs at 160 uM GlcN6P; higher = faster cleavage; RNA array
Summary of the method: as §1

Variant | kcat (glucosamine-6-phosphate [1]) [s⁻¹] | self-cleavage kobs at 640 uM GlcN6P (glucosamine-6-phosphate [2]) [s⁻¹] | self-cleavage kobs at 10000 uM GlcN6P (glucosamine-6-phosphate [3]) [s⁻¹] | self-cleavage kobs at 2500 uM GlcN6P (glucosamine-6-phosphate [4]) [s⁻¹] | KM (glucosamine-6-phosphate [5]) [µM] | self-cleavage kobs at 40 uM GlcN6P (glucosamine-6-phosphate [6]) [s⁻¹] | self-cleavage kobs at 160 uM GlcN6P (glucosamine-6-phosphate [7]) [s⁻¹]
G29A G60C | < 1e-05 | < 1e-05 | < 1e-05 | – | – | – | –
U30C C68A | 3.05e-05 ± 8e-06 | – | – | 3.62e-05 ± 1.1e-05 | – | – | –
U30C C68U | 0.000128 ± 8.6e-06 | 4.07e-05 ± 6.8e-06 | 0.000111 ± 8.5e-06 | 9.82e-05 ± 1.1e-05 | 1210 ± 270 | – | –
G29U U31A | 0.0048 ± 0.0017 | 0.000947 ± 0.00018 | 0.00369 ± 0.00052 | 0.0019 ± 0.00044 | 3260 ± 1600 | 9.58e-05 ± 1.6e-05 | 0.000159 ± 3.6e-05
C16U G44C | 6.71e-05 ± 2.3e-05 | 6.27e-05 ± 1.7e-05 | 8.38e-05 ± 1.3e-05 | 2.88e-05 ± 1.4e-05 | – | – | –
C16U G44A | 0.000353 ± 9.4e-05 | 7.56e-05 ± 1.5e-05 | 0.000277 ± 3.6e-05 | 0.000392 ± 7.1e-05 | – | – | –
G29C A52G | 0.000125 ± 7.9e-06 | 2.88e-05 ± 7.9e-06 | 0.000104 ± 1e-05 | 7.18e-05 ± 1e-05 | 1940 ± 350 | – | –
G29C A48U U69G | 6.26e-05 ± 2.1e-05 | 5.01e-05 ± 2.1e-05 | – | 7.04e-05 ± 3e-05 | – | – | –
G29A G32A C71A | 0.000259 ± 0.00011 | 6.03e-05 ± 2.6e-05 | 0.000201 ± 4.4e-05 | – | – | – | –
U30A G59A | 3.04e-05 ± 2.1e-06 | – | 2.5e-05 ± 1.2e-05 | – | 2080 ± 490 | < 1e-05 | –
G29C C61A | 1.76e-05 ± 3.3e-06 | – | – | – | – | < 1e-05 | –
U30A U55C | 0.0088 ± 0.0027 | 0.00129 ± 0.00024 | 0.00647 ± 0.00073 | 0.00471 ± 0.0012 | 3470 ± 1500 | 0.000194 ± 3.2e-05 | 0.000315 ± 5.6e-05
G29U C68U | 0.0008 ± 6.2e-05 | 0.00022 ± 2.5e-05 | 0.000719 ± 7.8e-05 | 0.000435 ± 5.5e-05 | 1710 ± 230 | 2.51e-05 ± 1e-05 | 6.87e-05 ± 1e-05
G29U U54A C67G | 8.75e-05 ± 2.6e-05 | 8.37e-05 ± 1.3e-05 | 5.17e-05 ± 2e-05 | 0.000134 ± 2.5e-05 | – | – | 5.68e-05 ± 1.4e-05
C16U G41A | 0.00129 ± 0.00064 | 0.000403 ± 7.6e-05 | – | 0.0011 ± 0.00019 | – | 6.97e-05 ± 1.2e-05 | 0.000153 ± 3.2e-05
C16U C67G | 0.000799 ± 5.5e-05 | 0.000229 ± 2.2e-05 | 0.000664 ± 5.4e-05 | 0.000566 ± 6.2e-05 | 1570 ± 190 | 1.87e-05 ± 6.4e-06 | 7.2e-05 ± 9.4e-06

Variant | kcat (glucosamine-6-phosphate [1]) [s⁻¹] | self-cleavage kobs at 640 uM GlcN6P (glucosamine-6-phosphate [2]) [s⁻¹] | self-cleavage kobs at 10000 uM GlcN6P (glucosamine-6-phosphate [3]) [s⁻¹] | self-cleavage kobs at 2500 uM GlcN6P (glucosamine-6-phosphate [4]) [s⁻¹] | KM (glucosamine-6-phosphate [5]) [µM] | self-cleavage kobs at 40 uM GlcN6P (glucosamine-6-phosphate [6]) [s⁻¹] | self-cleavage kobs at 160 uM GlcN6P (glucosamine-6-phosphate [7]) [s⁻¹]
C16U C67A | 0.00194 ± 0.0004 | 0.00138 ± 0.00017 | – | 0.00166 ± 0.0003 | 360 ± 110 | 0.000212 ± 2.2e-05 | 0.0005 ± 6.7e-05
G29C U46G | 0.000315 ± 9.7e-05 | 7.38e-05 ± 2.1e-05 | 0.000234 ± 7.5e-05 | 0.000285 ± 7.3e-05 | – | – | –
G29C U46C | 9.55e-05 ± 4.5e-06 | 5.09e-05 ± 1.5e-05 | 8.84e-05 ± 1.4e-05 | 8.67e-05 ± 2.2e-05 | 535 ± 120 | – | –
G29A U30G | 0.00554 ± 0.0022 | 0.00125 ± 0.00029 | 0.00513 ± 0.00085 | 0.0021 ± 0.00068 | – | 0.000159 ± 2.5e-05 | 0.000288 ± 5.9e-05
G29A U57A | 4e-05 ± 1.6e-06 | – | 3.64e-05 ± 1.7e-05 | – | 877 ± 180 | – | –
G29C G41U | 5.56e-05 ± 4e-07 | – | 4.6e-05 ± 7.7e-06 | 3.01e-05 ± 1.1e-05 | 2090 ± 57 | – | –
G29A U56C | 0.000719 ± 0.00026 | 0.000156 ± 2.2e-05 | 0.000619 ± 6.7e-05 | 0.000226 ± 3.3e-05 | – | – | 3.68e-05 ± 1.1e-05
U30A G40U | 0.000556 ± 6.4e-05 | 0.000117 ± 3e-05 | 0.000446 ± 6.3e-05 | 0.000367 ± 9e-05 | 2160 ± 580 | – | –
G29C A39U | 0.00205 ± 0.00072 | 0.000323 ± 6.3e-05 | 0.00153 ± 0.00022 | 0.000753 ± 0.00014 | – | 5.54e-05 ± 1.3e-05 | 6.75e-05 ± 1.6e-05
G29A U45A | 0.0109 ± 0.003 | 0.00159 ± 0.00032 | 0.00857 ± 0.0012 | 0.00447 ± 0.0012 | 3200 ± 1300 | 0.000219 ± 4.2e-05 | 0.000411 ± 0.00014
G29C C58A | 0.000126 ± 8e-06 | 3.49e-05 ± 1.2e-05 | 0.000108 ± 1.5e-05 | 8.42e-05 ± 1.4e-05 | 1420 ± 280 | – | –
G29C G37A | 0.000262 ± 4.4e-05 | – | 0.000165 ± 3.8e-05 | 7.11e-05 ± 1.8e-05 | 6200 ± 1700 | – | –
U30C C70G | 5.67e-05 ± 5.3e-06 | 6.49e-05 ± 1.1e-05 | 5.52e-05 ± 1e-05 | 4.88e-05 ± 9e-06 | – | – | 5.73e-05 ± 1.4e-05
U30C C70U | 0.000529 ± 0.00014 | 0.000125 ± 1e-05 | 0.000536 ± 5.9e-05 | 0.000261 ± 2.9e-05 | 1890 ± 790 | – | 6.03e-05 ± 7.8e-06
G29U G38A | < 1e-05 | < 1e-05 | – | < 1e-05 | – | – | < 1e-05
